Measured values as given in patent US20240301041A1 (Regeneron, published 2024).

Columns and labels:
IsdA.6xHis [1] = molecular target: T1, IsdA.6xHis (Staphylococcus aureus, UniProt A6QG31 47-316); assay: SPR (Biacore), mAb captured by anti-human Fc, IsdA.6xHis injected, 25 C
T1 construct: also called IsdA-6× His; IsdA.6×His
T1 sequence: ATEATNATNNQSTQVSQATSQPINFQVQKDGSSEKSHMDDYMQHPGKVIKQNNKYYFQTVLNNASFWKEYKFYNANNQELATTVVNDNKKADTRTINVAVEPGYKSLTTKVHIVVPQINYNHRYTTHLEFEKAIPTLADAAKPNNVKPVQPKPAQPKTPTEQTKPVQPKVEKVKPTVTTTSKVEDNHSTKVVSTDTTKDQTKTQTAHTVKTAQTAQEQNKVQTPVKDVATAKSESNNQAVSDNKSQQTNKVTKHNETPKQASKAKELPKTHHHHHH
Experimental: (§1) The equilibrium dissociation constants (KD) to Protein A and IsdA.6×His reagents binding to purified anti-IsdA*/* and anti-Protein A*/* monoclonal antibodies were determined using a real-time surface plasmon resonance based Biacore T200 or Biacore 4000 biosensor. All binding studies were performed in 10 mM HEPES, 150 mM NaCl, 3.4 mM EDTA and 0.05% v/v Tween-20, pH 7.4 (HBS-EP) running buffer at 25° C. and 37° C. […] Proteins were injected over the captured anti-IsdA*/* and anti-Protein A*/* monoclonal antibody surface for 3-3.5 minutes at a flow rate of 30-50 μL/minute, while the dissociation of monoclonal antibody bound IsdA.6×His and Protein A reagent was monitored for 5-10 minutes in HBS-EP running buffer. The association rate (ka) and dissociation rate (kd) were determined by fitting the real-time binding sensorgrams to a 1:1 binding model with mass transport limitation using Scrubber 2.0c curve-fitting software. Binding dissociation equilibrium constant (KD) and dissociative half-life (t½) were calculated from the kinetic rates as:

IsdA.6xHis [2] = molecular target: T1, IsdA.6xHis; assay: SPR (Biacore), mAb captured by anti-human Fc, IsdA.6xHis injected, 37 C
Experimental: as §1

B1: H1xH20334P2*/* (anti-IsdA) (antibody, V domains shown)
VH: EVQLVESGGGLVQPGRSLRVSCAASGFTFDDYAMHWVRQIPGKGLEWVSGIRWNSDTIGYADSVKGRFTISRDNAKNFLYLQMNSLRTEDTALYYCVKDMRVRGIIMYGMDVWGQGTTVTVSS
VL: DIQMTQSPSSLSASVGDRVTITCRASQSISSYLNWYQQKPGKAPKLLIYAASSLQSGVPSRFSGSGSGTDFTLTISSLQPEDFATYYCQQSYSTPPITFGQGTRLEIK
notes: also called anti-IsdA*/* monoclonal antibody
Kd (IsdA.6xHis [1]): 1.28 nM
koff (IsdA.6xHis [1]): 0.000446 s⁻¹
kon (IsdA.6xHis [1]): 348000 M⁻¹ s⁻¹
t½ (IsdA.6xHis [1]): 26 min
Kd (IsdA.6xHis [2]): 3.49 nM
koff (IsdA.6xHis [2]): 0.00167 s⁻¹
kon (IsdA.6xHis [2]): 479000 M⁻¹ s⁻¹
t½ (IsdA.6xHis [2]): 7 min
